# Experimental data as given in patent US20260055205A1 (published 2026).
# Molecular target: T1, human CD3 epsilon (human, UniProt P07766 23-126, limits assumed)
# T1 construct: also called huCD3e
# Test: Octet, crude lysate
# Description: Pool 2 consisted of paTCE molecules each containing PSMA.262 and one of 64 CD3.23 mutation combination variants. Stability and affinity of the individually expressed molecules in the form of crude lysate was evaluated by Octet. […] The binding of these anti-CD3 molecules (CD3.227, CD3.228, CD3.229 and CD3.230) to human and cynomolgus CD3 was measured by Octet and the Tm was measured by Differential Scanning Fluorimetry. All variants were paired with PSMA.262 except for CD3.23 which was paired with PSMA.5.
# T1 sequence (P07766 23-126 limits assumed): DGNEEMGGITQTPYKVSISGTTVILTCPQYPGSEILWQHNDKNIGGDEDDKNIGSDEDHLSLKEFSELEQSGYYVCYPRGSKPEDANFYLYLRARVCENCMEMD
row,Kd,Binder
1,29.4 nM,"CD3.259 (bispecific antibody, V domains shown, paTCE with PSMA.262; also called AC3690) VH: EVQLVESGGGIVQPGGSLRLSCAASGFTFNTYAMNWVRQAPGKGLEWVGRIRSKRNNYATTYADSVKDRFTISRDDSKNTLYLQMNSLKTEDTAVYYCVRHENFGNSYVSWFAHWGQGTLVTVSS VL: ELVVTQEPSLTVSPGGTVTLTCRSSNGAVTSSNYANWVQQKPGQAPRGLIGGTNKRAPGTPARFSGSLLGGKAALTLSGVQPEDEAVYYCALWYPNLWVFGGGTKLTVL"
2,4.5 nM,"CD3.264 (bispecific antibody, V domains shown, paTCE with PSMA.262; also called AC3695) VH: EVQLVESGGGIVQPGGSLKLSCAASGFTFSTYAMNWVRQAPGKGLEWVGRIRTKRNNYATYYADSVKGRFTISRDDSKNTVYLQMNSLKTEDTAVYYCVRHENFGNSYVSWFAHWGQGTLVTVSS VL: ELVVTQEPSLTVSPGGTVTLTCRSSNGAVTSSNYANWVQQKPGQAPRGLIGGTNKRAPGTPARFSGSLLGGKAALTLSGVQPEDEAVYYCALWYPNLWVFGGGTKLTVL"
3,7.2 nM,"CD3.263 (bispecific antibody, V domains shown, paTCE with PSMA.262; also called AC3694) VH: EVQLVESGGGIVQPGGSLKLSCAASGFTFNTYAMNWVRQAPGKGLEWVGRIRTKRNNYATYYADSVKGRFTISRDDSKNTVYLQMNSLKTEDTAVYYCVRHENFGNSYVSWFAHWGQGTLVTVSS VL: ELVVTQEPSLTVSPGGTVTLTCRSSNGAVTSSNYANWVQQKPGQAPRGLIGGTNKRAPGTPARFSGSLLGGKAALTLSGVQPEDEAVYYCALWYPNLWVFGGGTKLTVL"
4,97 nM,"CD3.261 (bispecific antibody, V domains shown, paTCE with PSMA.262; also called AC3692) VH: EVQLVESGGGIVQPGGSLRLSCAASGFTFNTYAMNWVRQAPGKGLEWVGRIRSKTNNYATTYADSVKDRFTISRDDSKNTLYLQMNSLKTEDTAVYYCVRHENFGNSYVSWFAHWGQGTLVTVSS VL: ELVVTQEPSLTVSPGGTVTLTCRSSNGAVTSSNYANWVQQKPGQAPRGLIGGTNKRAPGTPARFSGSLLGGKAALTLSGVQPEDEAVYYCALWYPNLWVFGGGTKLTVL"
5,45.6 nM,"CD3.260 (bispecific antibody, V domains shown, paTCE with PSMA.262; also called AC3691) VH: EVQLVESGGGIVQPGGSLRLSCAASGFTFNTYAMNWVRQAPGKGLEWVGRIRSKKNNYATTYADSVKDRFTISRDDSKNTLYLQMNSLKTEDTAVYYCVRHENFGNSYVSWFAHWGQGTLVTVSS VL: ELVVTQEPSLTVSPGGTVTLTCRSSNGAVTSSNYANWVQQKPGQAPRGLIGGTNKRAPGTPARFSGSLLGGKAALTLSGVQPEDEAVYYCALWYPNLWVFGGGTKLTVL"
6,25.4 nM,"CD3.262 (bispecific antibody, V domains shown, paTCE with PSMA.262; also called AC3693) VH: EVQLVESGGGIVQPGGSLRLSCAASGFTFNTYAMNWVRQAPGKGLEWVGRIRSKRNNYATTYADSVKDRFTISRDDSKNTLYLQMNELKTEDTAVYYCVRHENFGNSYVSWFAHWGQGTLVTVSS VL: ELVVTQEPSLTVSPGGTVTLTCRSSNGAVTSSNYANWVQQKPGQAPRGLIGGTNKRAPGTPARFSGSLLGGKAALTLSGVQPEDEAVYYCALWYPNLWVFGGGTKLTVL"

# Molecular target: T2, human PSMA (human, UniProt Q04609 44-750, limits assumed)
# T2 construct: also called huPSMA; hPSMA
# Test: binding screen
# T2 sequence (Q04609 44-750 limits assumed): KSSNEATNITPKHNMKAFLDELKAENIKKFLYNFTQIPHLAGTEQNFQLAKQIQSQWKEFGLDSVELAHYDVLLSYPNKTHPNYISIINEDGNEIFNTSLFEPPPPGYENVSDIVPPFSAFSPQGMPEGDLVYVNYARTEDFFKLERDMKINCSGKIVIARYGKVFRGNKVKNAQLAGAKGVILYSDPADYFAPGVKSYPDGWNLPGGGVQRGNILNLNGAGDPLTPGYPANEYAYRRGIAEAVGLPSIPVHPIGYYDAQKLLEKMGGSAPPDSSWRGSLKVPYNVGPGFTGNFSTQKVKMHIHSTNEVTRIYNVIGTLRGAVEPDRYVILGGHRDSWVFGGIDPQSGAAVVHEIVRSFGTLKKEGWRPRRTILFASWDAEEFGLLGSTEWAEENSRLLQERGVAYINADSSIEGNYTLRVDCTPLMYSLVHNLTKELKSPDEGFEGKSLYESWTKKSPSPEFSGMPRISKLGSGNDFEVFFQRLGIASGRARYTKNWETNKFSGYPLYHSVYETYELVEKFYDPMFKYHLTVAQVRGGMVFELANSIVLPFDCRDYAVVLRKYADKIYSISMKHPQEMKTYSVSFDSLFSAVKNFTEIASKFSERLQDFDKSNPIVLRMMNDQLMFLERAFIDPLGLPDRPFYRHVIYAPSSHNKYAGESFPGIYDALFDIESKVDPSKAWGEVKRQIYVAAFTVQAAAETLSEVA
Kd,binding result,Binder
10.4 nM,,"PSMA.306 (bispecific antibody, V domains shown, TCE with CD3.23; also called AC3708) VH: QVQLVESGGGVVQPGRSLRLSCAASGRTFGIYVMGWFRQAPGKEREFVGAMSWSGSNRKVSDSVKGRFTISRDNSKNTLYLQMNSLRAEDTAVYYCAASNKLYGRTWYDFNESDYWGQGTQVTVSS"
8.8 nM,,"PSMA.308 (bispecific antibody, V domains shown, TCE with CD3.23; also called AC3710) VH: QVQLVESGGGVVQPGRSLRLSCAASGRTFGIYVWGWFRQAPGKEREFVGAMSWSGSNRKVSDSVKGRFTISRDNSKNTLYLQMNSLRAEDTAVYYCAASNKWYGRTWYDFNESDYWGQGTQVTVSS"
,no binding,"PSMA.318 (bispecific antibody, V domains shown, TCE with CD3.23; also called AC3720) VH: QVQLVESGGGVVQPGRSLRLSCAASGRTFGIYVMGWFRQAPGKEREFVGAISWSGSNRKVSDSVKGRFTISRDNSKNTLYLQMNSLRAEDTAVRYCAGSNKLYGRTWYDFNESDYWGQGTQVTVSS"
10 nM,,"PSMA.301 (bispecific antibody, V domains shown, TCE with CD3.23; also called AC3703) VH: QVQLVESGGGVVQPGRSLRLSCAASGRTFGIYVMGWFRQAPGKEREFVGAISWSGSNRKVSDSVKGRFTISRDNSKNTLYLQMNSLRAEDTAVYFCAASNKLYGRTWYDFNESDYWGQGTQVTVSS"
5.9 nM,,"PSMA.304 (bispecific antibody, V domains shown, TCE with CD3.23; also called AC3706) VH: QVQLVESGGGVVQPGRSLRLSCAASGRTFGIYVWGWFRQAPGKEREFVGAMSWSGSNRKVSDSVKGRFTISRDNSKNTLYLQMNSLRAEDTAVYFCAASNKLYGRTWYDFNESDYWGQGTQVTVSS"
10.3 nM,,"PSMA.303 (bispecific antibody, V domains shown, TCE with CD3.23; also called AC3705) VH: QVQLVESGGGVVQPGRSLRLSCAASGRTFGIYVMGWFRQAPGKEREFVGAMSWSGSNRKVSDSVKGRFTISRDNSKNTLYLQMNSLRAEDTAVYFCAASNKLYGRTWYDFNESDYWGQGTQVTVSS"
150 nM,,"PSMA.316 (bispecific antibody, V domains shown, TCE with CD3.23; also called AC3718) VH: QVQLVESGGGVVQPGRSLRLSCAASGRTFGIYVMGWFRQAPGKEREFVGAISWSGSNRKVSDSVKGRFTISRDNSKNTLYLQMNSLRAEDTAVYYCAASNKGYGRTWYDFNESDYWGQGTQVTVSS"
,no binding,"PSMA.317 (bispecific antibody, V domains shown, TCE with CD3.23; also called AC3719) VH: QVQLVESGGGVVQPGRSLRLSCAASGRTFGIYVMGWFRQAPGKEREFVGAISWSGSNRKVSDSVKGRFTISRDNSKNTLYLQMNSLRAEDTAVAYCAGSNKLYGRTWYDFNESDYWGQGTQVTVSS"
,no binding,"PSMA.322 (bispecific antibody, V domains shown, TCE with CD3.23; also called AC3724) VH: QVQLVESGGGVVQPGRSLRLSCAASGRTFGIYVMGWFRQAPGKEREFVGAISWSGSNRKVSDSVKGRFTISRDNSKNTLYLQMNSLRAEDTAVSYCAGSNKLYGRTWYDFNESDYWGQGTQVTVSS"
,no binding,"PSMA.313 (bispecific antibody, V domains shown, TCE with CD3.23; also called AC3715) VH: QVQLVESGGGVVQPGRSLRLSCAASGRTFGIYVMGWFRQAPGKEREFVGAISWSGSNRKVSDSVKGRFTISRDNSKNTLYLQMNSLRAEDTAVYYCAASNKRYGRTWYDFNESDYWGQGTQVTVSS"
12 nM,,"PSMA.312 (bispecific antibody, V domains shown, TCE with CD3.23; also called AC3714) VH: QVQLVESGGGVVQPGRSLRLSCAASGRTFGIYVMGWFRQAPGKEREFVGAISWSGSNRKVSDSVKGRFTISRDNSKNTLYLQMNSLRAEDTAVYYCGASNKLYGRTWYDFNESDYWGQGTQVTVSS"
6 nM,,"PSMA.307 (bispecific antibody, V domains shown, TCE with CD3.23; also called AC3709) VH: QVQLVESGGGVVQPGRSLRLSCAASGRTFGIYVWGWFRQAPGKEREFVGAMSWSGSNRKVSDSVKGRFTISRDNSKNTLYLQMNSLRAEDTAVYYCAASNKLYGRTWYDFNESDYWGQGTQVTVSS"
23.1 nM,,"PSMA.310 (bispecific antibody, V domains shown, TCE with CD3.23; also called AC3712) VH: QVQLVESGGGVVQPGRSLRLSCAASGRTFGIYVMGWFRQAPGKEREFVGAISWSGSNRKVSDSVKGRFTISRDNSKNTLYLQMNSLRAEDTAVYYCGGSNKLYGRTWYDFNESDYWGQGTQVTVSS"
,no binding,"PSMA.319 (bispecific antibody, V domains shown, TCE with CD3.23; also called AC3721) VH: QVQLVESGGGVVQPGRSLRLSCAASGRTFGIYVMGWFRQAPGKEREFVGAISWSGSNRKVSDSVKGRFTISRDNSKNTLYLQMNSLRAEDTAVNYCAGSNKLYGRTWYDFNESDYWGQGTQVTVSS"
69.9 nM,,"PSMA.314 (bispecific antibody, V domains shown, TCE with CD3.23; also called AC3716) VH: QVQLVESGGGVVQPGRSLRLSCAASGRTFGIYVMGWFRQAPGKEREFVGAISWSGSNRKVSDSVKGRFTISRDNSKNTLYLQMNSLRAEDTAVYYCAASNKDYGRTWYDFNESDYWGQGTQVTVSS"
8.5 nM,,"PSMA.309 (bispecific antibody, V domains shown, TCE with CD3.23; also called AC3711) VH: QVQLVESGGGVVQPGRSLRLSCAASGRTFGIYVWGWFRQAPGKEREFVGAMSWSGSNRKVSDSVKGRFTISRDNSKNTLYLQMNSLRAEDTAVYFCAASNKWYGRTWYDFNESDYWGQGTQVTVSS"
,no binding,"PSMA.320 (bispecific antibody, V domains shown, TCE with CD3.23; also called AC3722) VH: QVQLVESGGGVVQPGRSLRLSCAASGRTFGIYVMGWFRQAPGKEREFVGAISWSGSNRKVSDSVKGRFTISRDNSKNTLYLQMNSLRAEDTAVGYCAGSNKLYGRTWYDFNESDYWGQGTQVTVSS"
24.2 nM,,"PSMA.315 (bispecific antibody, V domains shown, TCE with CD3.23; also called AC3717) VH: QVQLVESGGGVVQPGRSLRLSCAASGRTFGIYVMGWFRQAPGKEREFVGAISWSGSNRKVSDSVKGRFTISRDNSKNTLYLQMNSLRAEDTAVYYCAASNKEYGRTWYDFNESDYWGQGTQVTVSS"
2.8 nM,,"PSMA.302 (bispecific antibody, V domains shown, TCE with CD3.23; also called AC3704) VH: QVQLVESGGGVVQPGRSLRLSCAASGRTFGIYVWGWFRQAPGKEREFVGAISWSGSNRKVSDSVKGRFTISRDNSKNTLYLQMNSLRAEDTAVYFCAASNKLYGRTWYDFNESDYWGQGTQVTVSS"
,no binding,"PSMA.321 (bispecific antibody, V domains shown, TCE with CD3.23; also called AC3723) VH: QVQLVESGGGVVQPGRSLRLSCAASGRTFGIYVMGWFRQAPGKEREFVGAISWSGSNRKVSDSVKGRFTISRDNSKNTLYLQMNSLRAEDTAVKYCAGSNKLYGRTWYDFNESDYWGQGTQVTVSS"
,no binding,"PSMA.311 (bispecific antibody, V domains shown, TCE with CD3.23; also called AC3713) VH: QVQLVESGGGVVQPGRSLRLSCAASGRTFGIYVMGWFRQAPGKEREFVGAISWSGSNRKVSDSVKGRFTISRDNSKNTLYLQMNSLRAEDTAVDYCAASNKLYGRTWYDFNESDYWGQGTQVTVSS"
,binds,"PSMA.305 (bispecific antibody, V domains shown, TCE with CD3.23; also called AC3707) VH: QVQLVESGGGVVQPGRSLRLSCAASGRTFGIYVWGWFRQAPGKEREFVGAISWSGSNRKVSDSVKGRFTISRDNSKNTLYLQMNSLRAEDTAVYYCAASNKLYGRTWYDFNESDYWGQGTQVTVSS"
